# Experimental data from US20200129630A1, “METHODS FOR TREATING CANCER” (BicycleRD Limited, priority 2018, published 2020).
# Numbered stars: 1 amine (or outer) side, 2 acyl side, 3 side chain; on linkers, the order of the positions; unused ones are H or OH. Bridge positions count the residues as written; N and C are the ends. Square brackets hold non-standard residues; d marks the D form. Peptide text beside a SMILES is read from it. * marks the point of attachment. X1 = COc1cc2cc(c1Cl)N(C)C(=O)C[C@H](OC(=O)[C@H](C)N(C)C(=O)CCSSC(C)CCC(=O)*)[C@]1(C)O[C@H]1[C@H](C)[C@@H]1C[C@@](O)(NC(=O)O1)[C@H](OC)/C=C/C=C(\C)C2; 1Nal = N[C@@H](Cc1cccc2ccccc12)C(=O)O; TBMB = c1c(C[*:1])cc(C[*:3])cc1C[*:2]; Tle = CC(C)(C)[C@H](N)C(=O)O; βAla = NCCC(=O)O; Sar = CNCC(=O)O
# Key:
# [1] = Non-GLP toxicity studies, monkey; format: in vivo, monkeys
# From the text: (§3) These include in vitro tissue microarray in human, rat and monkey tissues and in vitro and in vivo assessment of immunogenicity. In vivo assessments include single dose toxicity in mice and rats, multiple dose range finding studies in mice, rats, dogs and monkeys (non-GLP) and GLP-compliant multiple dose studies in rats and monkeys consisting of 28-day on study phase with a 28-day recovery period.
# HT-1080 = experiment: In vitro cytotoxicity (CellTiter-Glo) HT-1080; format: cell-based; details: HT-1080, Fibrosarcoma
# From the text: (§1) Table 1 and Table 2 Notes: in general regression and stable disease correlated with the in vitro cytotoxicity and MT1-MMP expression. Female BALB/c mice n=3/group animals dosed twice per week except EBC-1 three per week. Tumor growth inhibition (TGI) (%)=[1−(Ti−T0)/(Vi−V0)]×100; Ti is the average tumor volume of a treatment group on a given day, TO is the average tumor volume of the treatment group on the day of treatment start, Vi is the average tumor volume of vehicle control group on the same day with Ti, and V0 is the average tumor volume of vehicle group on the day of treatment start. A one-way ANOVA was performed to compare tumor volume among groups, and when a significant F-statistics (a ratio of treatment variance to the error variance) was obtained, comparisons between groups were carried out with Games-Howell test. All data were analyzed using GraphPad Prism.* p<0.05, ** p<0.01, *** p<0.001. In vitro cytotoxicity was measured by CellTiter-Glo®, MT1-MMP membrane H score from immunohistochemistry staining, NM not measured. Tumor size on Day 1 of dosing.
# advanced solid tumors = experiment: Phase I/IIa trial of BT1718 in patients with advanced solid tumors: safety and efficacy; format: in vivo
# From the text: This is a multi-center, FIH, Phase I/IIa, open label dose escalation trial with an expansion phase, in patients with advanced solid tumors.
# A DLT is defined as a probably or highly probably drug-related AE occurring during Cycle 1 (i.e. the first 28 days) which fulfils one or more of the following criteria, despite appropriate supportive clinical management (however, all clinically significant toxicities will be considered in dose review decisions and the determination of the Phase II dose): • Neutropenia Grade 4 (absolute neutrophil count [ANC]<0.5×10^9/L) for ≥seven days *see note; • Febrile neutropenia with Grade 3 or 4 neutropenia ANC <1.0×10^9/L and a single temperature of […] or a sustained temperature ≥38° C. for more than one hour); • Clinically significant infection (documented clinically or microbiologically) with Grade 3 or 4 neutropenia (ANC <1.0×10^9/L); • Thrombocytopenia Grade 4: a) for ≥five days *see note, or b) associated with active bleeding, or c) requiring platelet transfusion. • Grade 3 or 4 toxicity to organs other than the bone marrow, EXCLUDING: Grade 3 nausea; • Grade 3 or 4 vomiting in patients who have not received optimal treatment with anti-emetics; or • Grade 3 or 4 diarrhoea in patients who have not received optimal treatment with anti-diarrhoeals. • Transient, asymptomatic Grade 3 biochemical abnormalities if agreed by the Sponsor and the Study Team, including the Chief Investigator (CI). • Fatal event; • Any other related toxicity which leads to discontinuation of treatment in Cycle 1, or to a delay in dosing of >7 days (excluding where the delay is >7 days due to scheduling rather than a clinical decision); • Any other related toxicity that is greater than at baseline and is judged to be a DLT by the Sponsor, including the CI and Principal Investigators (PIs).
# Definitions of disease status is in accordance with RECIST (Response Evaluation Criteria in Solid Tumors) 1.1, based on documentation of target and non-target lesions as specified in the BT1718 study protocol. All clinical measurements to assess response must be performed within one week of the first dose of BT1718.
# An open label, first in human phase Ulla study of once-weekly (QW) and twice-weekly (BIW) dosing schedules in patients with advanced solid tumours was undertaken.
# 4-week cycle: 1 hour intravenous (IV) infusions for 3 weeks, followed by a 1 week break.
# [2] = Stability in plasma in vitro, rat; format: in vitro ADME; details: 37° C.
# Protocol: (§2) The stability of BT1718 was assessed in plasma and whole blood from humans, monkey, dog, mouse and rat. […] The mechanism for the difference in stability of the BT1718 peptide in whole blood between the different species is unknown.
# [3] = Non-GLP toxicity studies, dog; format: in vivo
# From the text: as §3
# MDA-MB-231 = experiment: In vitro cytotoxicity (CellTiter-Glo) MDA-MB-231; format: cell-based; details: MDA-MB-231, Breast
# From the text: as §1
# [4] = Stability in plasma in vitro, mouse; format: in vitro ADME; details: 37° C.
# Protocol: as §2
# HCT-15 = experiment: In vitro cytotoxicity (CellTiter-Glo) HCT-15; format: cell-based; details: HCT-15, Colorectal
# From the text: as §1
# [5] = Intrinsic clearance in cryopreserved hepatocytes; format: in vitro ADME
# Protocol: Accumulation of the majority of the radioactivity was found in the kidney and bladder irrespective of the labelled peptide dose; this is indicative of either non-saturable excretion or proteolysis followed by excretion through the kidneys. Furthermore, the intrinsic clearance of BT1718 and its Bicycle component, N241 was low when measured in cryopreserved hepatocytes. […] Unconjugated DM1, when radiolabelled, (as [[^3H]-DM1 (91 μCi/kg, 200 μg/kg, IV), was reported to distribute rapidly and extensively to the lungs, liver, kidney, spleen, heart, gastrointestinal tract, and adrenal glands in the rat. The major route of excretion of DM1 was through the bile/faeces, with a minimal amount excreted in the urine, a completely different distribution to BT1718 and its metabolites with little and short lived accumulation seen in other organs such as heart, liver, GI and lungs which would imply that these organs maybe spared systemic toxicity.
# [6] = Sprague Dawley rat PK study; format: in vivo; details: plasma, 15 mg/m2, male, 15 mg/m^2 IV
# NCI-H1975 = experiment: In vitro cytotoxicity (CellTiter-Glo) NCI-H1975; format: cell-based; details: NCI-H1975, NSCLC
# From the text: as §1
# [7] = dogs 1 mg/kg, 20 mg/m^2 twice weekly
smiles,measurement,setting,value
COc1cc2cc(c1Cl)N(C)C(=O)C[C@H](OC(=O)[C@H](C)N(C)C(=O)CCSSC(C)CCC(=O)NCCC(=O)N(C)CC(=O)N(C)CC(=O)N(C)CC(=O)N(C)CC(=O)N(C)CC(=O)N(C)CC(=O)N(C)CC(=O)N(C)CC(=O)N(C)CC(=O)N(C)CC(=O)N[C@@H](C)C(=O)N[C@H]1CSCc3cc4cc(c3)CSC[C@H](NC(=O)[C@@H](C)NC(=O)[C@H](Cc3cccc5ccccc35)NC(=O)[C@H](CCC(=O)O)NC(=O)[C@H](CC(N)=O)NC(=O)[C@@H](C)NC1=O)C(=O)N[C@@H](CCC(=O)O)C(=O)N[C@@H](CC(=O)O)C(=O)N[C@@H](Cc1ccccc1)C(=O)N[C@@H](Cc1ccc(O)cc1)C(=O)N[C@@H](CC(=O)O)C(=O)N[C@@H](C(C)(C)C)C(=O)N[C@H](C(N)=O)CSC4)[C@]1(C)O[C@H]1[C@H](C)[C@@H]1C[C@@](O)(NC(=O)O1)[C@H](OC)/C=C/C=C(\C)C2 (stereo partly drawn) [BT1718] ({X1-βAla}-[Sar][Sar][Sar][Sar][Sar][Sar][Sar][Sar][Sar][Sar]AC[dA]NE[1Nal][dA]CEDFYD[Tle]C-NH2; linker 12-18-25 via TBMB (inferred)),peripheral haematology,"[1]; monkeys 2 mg/kg, 24 mg/m^2 once weekly",significant decreases in WBCs
same,GI findings,"[1]; monkeys, single 3 mg/kg (36 mg/m^2) one week post 1.5 mg/kg dose",mild single cell necrosis of the glandular epithelial cells in the caecum
same,IC50,HT-1080,4.3 nM
same,DLTs,advanced solid tumors; 9.6 mg/m^2 BIW (cohort 5),"2×DLTs (GGT, fatigue) and increased GGT (grade 4) and fatigue (grade 3)"
same,"Drug-related Alanine aminotransferase increased, number of patients, n = 28 (frequency)","advanced solid tumors; human, in vivo",8 (28.6%)
same,"Drug-related Anaemia, number of patients, n = 28 (frequency)","advanced solid tumors; human, in vivo",7 (25.0%)
same,"Drug-related Aspartate aminotransferase increased, number of patients, n = 28 (frequency)","advanced solid tumors; human, in vivo",9 (32.1%)
same,"Drug-related Blood alkaline phosphatase increased, number of patients, n = 28 (frequency)","advanced solid tumors; human, in vivo",5 (17.9%)
same,"Drug-related Decreased appetite, number of patients, n = 28 (frequency)","advanced solid tumors; human, in vivo",9 (32.1%)
same,"Drug-related Diarrhea, number of patients, n = 28 (frequency)","advanced solid tumors; human, in vivo",10 (35.7%)
same,"Drug-related Fatigue, number of patients, n = 28 (frequency)","advanced solid tumors; human, in vivo",9 (32.1%)
same,"Drug-related Gamma-glutamyltransferase increased, number of patients, n = 28 (frequency)","advanced solid tumors; human, in vivo",5 (17.9%)
same,"Drug-related Lethargy, number of patients, n = 28 (frequency)","advanced solid tumors; human, in vivo",6 (21.4%)
same,"Drug-related Nausea, number of patients, n = 28 (frequency)","advanced solid tumors; human, in vivo",12 (42.9%)
same,"Drug-related Neuropathy peripheral, number of patients, n = 28 (frequency)","advanced solid tumors; human, in vivo",9 (32.1%)
same,"Drug-related Vomiting, number of patients, n = 28 (frequency)","advanced solid tumors; human, in vivo",9 (32.1%)
same,Grade 1-2 related peripheral neuropathy,"advanced solid tumors; human, in vivo",occurred more commonly with increasing dose
same,RP2D for twice weekly dosing,"advanced solid tumors; human, in vivo",7.2 mg/m^2
same,patients with related grade 1-3 gastrointestinal disorders,"advanced solid tumors; including nausea, diarrhea and vomiting",18/28
same,tolerability,"advanced solid tumors; once weekly dosing, dose levels tested",tolerable
same,half-life,[2],> 6 h
same,GI findings,[3]; dog 1 mg/kg (20 mg/m^2) twice weekly,Slight to moderate small intestinal degeneration
same,bladder findings,"[3]; dog, 14 mg/m^2 twice weekly",Bladder epithelial degeneration
same,hepatic findings,[3]; [7],Elevated liver enzymes
same,peripheral haematology,[3]; [7],significant decreases in WBCs
same,renal findings,[3]; [7],Moderate renal tubule degeneration and epithelial mitosis
same,IC50,MDA-MB-231,39.8 nM
same,half-life,[4],> 5 h
same,IC50,HCT-15,870 nM
same,intrinsic clearance,[5],low
same,AUC,[6],1.5 ± 0.2 µM·h
same,clearance,[6],9.4 ± 1.1 mL/min/kg
same,half-life,[6],0.56 ± 0.11 h
same,Cmax,[6]; read-out: C0/Cmax,4.2 ± 1.1 µM
same,Vd,[6]; read-out: Vdss,0.29 ± 0.03 L/kg
same,IC50,NCI-H1975,19.7 nM
